The source of these data is patent US20250230251A1 (Bristol-Myers Squibb, published 2025).

B1: P20-V5 (antibody, human IgG1, kappa, name in Kabat numbering)
heavy: QVQLQQSGPGLVKPSETLSLTCTVSGGSINNYYWSWIRQPPGKGLEWIGYIFYSGTTNYNPSLKSRVTISVDTSKNQFSLKLSSVTAADTAVYYCARDVGIAARNSYYYVMDVWGQGTTVTVSSASTKGPSVFPLAPSSKSTSGGTAALGCLVKDYFPEPVTVSWNSGALTSGVHTFPAVLQSSGLYSLSSVVTVPSSSLGTQTYICNVNHKPSNTKVDKRVEPKSCDKTHTCPPCPAPEAEGAPSVFLFPPKPKDTLMISRTPEVTCVVVDVSHEDPEVKFNWYVDGVEVHNAKTKPREEQYNSTYRVVSVLTVLHQDWLNGKEYKCKVSNKALPAPIEKTISKAKGQPREPQVYTLPPSREEMTKNQVSLTCLVKGFYPSDIAVEWESNGQPENNYKTTPPVLDSDGSFFLYSKLTVDKSRWQQGNVFSCSVMHEALHNHYTQKSLSLSPG
light: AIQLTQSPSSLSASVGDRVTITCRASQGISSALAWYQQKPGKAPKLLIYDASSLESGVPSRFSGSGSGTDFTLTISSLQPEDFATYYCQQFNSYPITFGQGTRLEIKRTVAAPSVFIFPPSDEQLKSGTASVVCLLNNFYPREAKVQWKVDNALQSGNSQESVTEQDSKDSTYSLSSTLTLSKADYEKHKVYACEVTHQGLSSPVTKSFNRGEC
notes: built from the chains of the parent P20 with the printed mutation
B2: huIL-18Rβ-HisAvi (receptor)
chain: FNISGCSTKKLLWTYSTRSEEEFVLFCDLPEPQKSHFCHRNRLSPKQVPEHLPFMGSNDLSDVQWYQQPSNGDPLEDIRKSYPHIIQDKCTLHFLTPGVNNSGSYICRPKMIKSPYDVACCVKMILEVKPQTNASCEYSASHKQDLLLGSTGSISCPSLSCQSDAQSPAVTWYKNGKLLSVERSNRIVVDEVYDYHQGTYVCDYTQSDTVSSWTVRAVVQVRTIVGDTKLKPDILDPVEDTLEVELGKPLTISCKARFGFERVFNPVIKWYIKDSDLEWEVSVPEAKSIKSTLKDEIIERNIILEKVTQRDLRRKFVCFVQNSIGNTTQSVQLKEKR
modifications: biotinylated in the Octet blocking assay
notes: Soluble analyte in all SPR runs; captured on streptavidin sensors in the Octet assay; also called human IL-18Rβ; human IL-18Rβ-Avi-His

Experiment [1] has as its target B2. As to the kind of experiment: SPR T200, pH 7.4 and pH 6.
In another experiment the target is T1, human IL-18Rβ on cells (human, UniProt O95256 20-599).
T1 sequence: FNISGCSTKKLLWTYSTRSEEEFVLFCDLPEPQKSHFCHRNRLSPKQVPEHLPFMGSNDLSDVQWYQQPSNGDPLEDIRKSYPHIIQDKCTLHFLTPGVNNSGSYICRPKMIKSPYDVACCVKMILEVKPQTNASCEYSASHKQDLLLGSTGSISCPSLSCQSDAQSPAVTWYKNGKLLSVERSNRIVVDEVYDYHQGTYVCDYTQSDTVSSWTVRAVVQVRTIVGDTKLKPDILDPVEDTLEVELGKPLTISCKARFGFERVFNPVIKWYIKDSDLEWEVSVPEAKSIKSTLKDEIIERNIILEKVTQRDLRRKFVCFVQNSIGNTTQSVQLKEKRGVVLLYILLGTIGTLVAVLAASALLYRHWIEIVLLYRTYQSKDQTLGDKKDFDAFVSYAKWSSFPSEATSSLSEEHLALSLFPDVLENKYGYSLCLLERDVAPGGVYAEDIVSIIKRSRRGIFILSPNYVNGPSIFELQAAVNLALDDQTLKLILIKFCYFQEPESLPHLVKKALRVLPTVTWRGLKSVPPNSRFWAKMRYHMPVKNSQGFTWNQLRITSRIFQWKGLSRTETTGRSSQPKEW
Nature of the experiment: cell-based or functional assay.

Experiment [2] concerns the target B2. As to the kind of experiment: SPR T200, mAb on anti-hFc, 37C, pH 6.
Experiment [3] deals with T2, cyIL-18Rβ-HisAvi (cynomolgus monkey).
T2 construct: Soluble analyte in SPR; also called cyno IL-18Rβ; cynomolgus monkey IL-18Rβ
T2 chain: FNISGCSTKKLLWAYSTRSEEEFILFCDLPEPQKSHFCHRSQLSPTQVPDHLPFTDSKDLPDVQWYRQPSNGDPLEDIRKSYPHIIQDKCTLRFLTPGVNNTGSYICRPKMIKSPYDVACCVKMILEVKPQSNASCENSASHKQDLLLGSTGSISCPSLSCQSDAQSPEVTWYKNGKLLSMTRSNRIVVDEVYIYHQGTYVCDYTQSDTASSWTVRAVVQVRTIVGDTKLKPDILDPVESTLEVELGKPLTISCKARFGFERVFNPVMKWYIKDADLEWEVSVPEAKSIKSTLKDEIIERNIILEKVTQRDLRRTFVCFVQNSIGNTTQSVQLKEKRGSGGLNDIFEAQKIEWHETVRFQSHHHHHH
Nature of the experiment: SPR T200, mAb on anti-hFc, 37C, pH 6.

Experiment [4] has as its target B2. Nature of the experiment: SPR T200, mAb on anti-hFc, 37C, pH 7.4.
The target in experiment [5] is T2, cyIL-18Rβ-HisAvi. Nature of the experiment: SPR T200, mAb on anti-hFc, 37C, pH 7.4.
The next experiment has as its target T3, IL-18:IL-18Rα complex (human, UniProt Q14116 37-193; Q13478 19-329, limits assumed).
T3 construct: Made by mixing 1.6 uM IL-18 with 100 nM IL-18Ra-Fc-His; also called complexed IL-18: IL-18Rα; not shown: Fc and His tag of the bought fusion protein, not described
T3 sequence (looked up) 1: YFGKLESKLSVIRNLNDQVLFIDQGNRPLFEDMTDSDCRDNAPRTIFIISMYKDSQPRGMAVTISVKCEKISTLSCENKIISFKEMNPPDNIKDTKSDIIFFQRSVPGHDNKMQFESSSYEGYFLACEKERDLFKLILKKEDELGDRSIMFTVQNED
T3 sequence (looked up) 2: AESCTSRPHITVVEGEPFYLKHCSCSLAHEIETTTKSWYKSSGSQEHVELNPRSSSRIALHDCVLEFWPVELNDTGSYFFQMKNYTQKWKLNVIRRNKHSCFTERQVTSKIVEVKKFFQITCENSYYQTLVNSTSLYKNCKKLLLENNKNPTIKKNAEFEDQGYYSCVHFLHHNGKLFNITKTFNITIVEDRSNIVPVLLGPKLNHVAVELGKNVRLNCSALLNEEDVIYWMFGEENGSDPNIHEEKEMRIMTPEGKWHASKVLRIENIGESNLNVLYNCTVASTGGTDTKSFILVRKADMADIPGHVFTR
As to the kind of experiment: Octet RED384 BLI, complex on sensor-captured biotin-hIL-18Rβ-Avi-His after the 50 nM antibody step. (BLI is a label-free optical method that tracks binding on a fibre tip over time.)

As a reminder, the Kd is the equilibrium constant for the complex coming apart. Read a high Kd as weaker binding. The koff is the rate constant with which the complex falls apart. Read a high koff as fast dissociation. By kon is commonly meant a measure of how fast the partners come together. Turning to B1, the “fold weaker off-rate and KD than the parent P20” value with huIL-18Rβ-HisAvi [1] was determined as 10 fold. Further, the “IC50, LPS+IL-12 dependent IFNg production, human whole blood” value with human IL-18Rβ on cells was determined as 21.2 nM. For the same molecule, the Kd with huIL-18Rβ-HisAvi [2] amounted to 1.8 nM; with cyIL-18Rβ-HisAvi [3] it was 5.5 nM; in the experiment with huIL-18Rβ-HisAvi [4], 19 nM; with cyIL-18Rβ-HisAvi [5], 40 nM. Besides, the koff with huIL-18Rβ-HisAvi [2] was 0.00059 s⁻¹; with cyIL-18Rβ-HisAvi [3], 0.00097 s⁻¹; with huIL-18Rβ-HisAvi [4], 0.0011 s⁻¹; with cyIL-18Rβ-HisAvi [5], 0.0013 s⁻¹. For the same molecule, the kon turned out to be 340000 M⁻¹ s⁻¹ with huIL-18Rβ-HisAvi [2], 180000 M⁻¹ s⁻¹ with cyIL-18Rβ-HisAvi [3], 56000 M⁻¹ s⁻¹ with huIL-18Rβ-HisAvi [4] and 34000 M⁻¹ s⁻¹ with cyIL-18Rβ-HisAvi [5].
With B2, the binding result in the experiment with IL-18:IL-18Rα complex is “binds”.
